Experimental data: the supplement of paper PMC12764529
± gives the half width of the 95% confidence interval.

Assays:
[1] = folding stability dG unfold (combined trypsin and chymotrypsin); higher = more stable
In short: (§1)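 Mini-proteins designed to be under 80 residues and free of cysteine were carried in a PA-tagged cDNA display construct and digested with trypsin and with chymotrypsin. Each protease was applied at 11 threefold-diluted concentrations, alongside a no-protease condition, before sequencing. K50 came from Bayesian fitting of the sequencing counts, and unfolding free energy was obtained by comparing it with a sequence-predicted unfolded-state K50 and a shared folded-state K50, for each protease separately or for both together. Designs were retained only if their AlphaFold2 dimer inter-PAE exceeded 15.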

[2] = folding stability dG unfold from trypsin proteolysis; higher = more stable
In short: as §1

[3] = folding stability dG unfold from chymotrypsin proteolysis; higher = more stable
In short: as §1

Sequence	folding stability dG unfold [1] [kcal/mol]	folding stability dG unfold [2] [kcal/mol]	folding stability dG unfold [3] [kcal/mol]
SAGGPWRFEIDDIQPPEDGKVQIRIKLYNDDGEPIQELSIPMKGVDDVKITIPIGNQPIKIPITVVPASAGG [r13_427_TrROS]	0.361 ± 0.19	-0.13 ± 0.27	0.614 ± 0.22
SAGGPYMEIQFPMPEDQVRPALEKAADEWGMEVKEINYHPNNGMVTITVNDNMPPNRIRKAIEKVLKSAGGS [r8_338_TrROS]	-0.181 ± 0.15	-0.784 ± 0.4	0.0859 ± 0.09
SAGGREITIMIWMPLEDMEEFANEIANALAAEGYKVKDIEIQFKVIPDPENGRPWVMFMIEVEIEPPSAGGS [r8_475_TrROS]	4.27 ± 0.1	2.96 ± 0.19	4.717 ± 0.044
SAGGRFYFEAKDPSITPEELRAALEEAFGVKFHRIKPVEPLPDGMLYEVEIPEIGGHFDVSAEEIEKLLSAG [r5_550_TrMRF]	1.56 ± 0.16	1.27 ± 0.053	1.78 ± 0.077
SAGGRGVGRPGSRLLLVAEADLEPDEVSVEELAERIREAFPDVRVVDLRVEVGGEKARLFALVELDVSAGGS [r8_202_TrMRF]	1.41 ± 0.092	0.917 ± 0.077	1.64 ± 0.067
SAGGRIHIPIPLNQAREILKKLAPDGRDVTAEPQGPSKDNVYYTIEFEPPKNGNEVDIEIWIPPPGDSAGGS [r16_486_TrROS]	0.0968 ± 0.18	-0.000485 ± 0.1	-0.234 ± 0.36
SAGGRIRIEYDPENGTITIYVPTPDGEITPDQVEEIAKLLMELWPNIEVEIEPHPNGMVRITIKIPPKSAGG [r13_291_TrROS]	3.54 ± 0.19	3 ± 0.19	3.81 ± 0.23
SAGGRIVEAAKEAGLDGVDLKEIRPLPDGGVEIRILPPPGMPEEAAAEAAERIERALREEFPDTRIDTESAG [r5_101_TrMRF]	-0.209 ± 0.31	-0.835 ± 0.33	0.207 ± 0.056
SAGGRRPVTAEEAADRLMKELGIPGLKNIKDVTMEYEVYDPDGKPWSRVDITIKIKMPPEQRDRLKKLSAGG [r13_552_TrROS]	0.51 ± 0.16	0.607 ± 0.12	0.436 ± 0.19
SAGGRTLEFNMKSNNPNMMENEISKLLRELGFPPGFDIEVNPERDPNGRYTYPITITVDNPELADKISAGGS [r8_85_TrROS]	-0.0764 ± 0.42	0.106 ± 0.43	-0.00324 ± 0.54
SAGGRVDVRVERVGEGAVITLLADVEDPEPLVELLEASGLPVELARIEPVRDPVTGRLLVRAVFRVPSAGGS [r16_699_TrMRF]	1.13 ± 0.095	1.12 ± 0.069	1.14 ± 0.082
SAGGSAAKIDPKNGTITIYNKKTGKKIKIKIKNLPPGAKVTIEIKNGKITIKVDGKTIEINIKEIKSAGGSA [r15_864_TrROS_Hall]	2.85 ± 0.29	2.1 ± 0.26	3.19 ± 0.19
SAGGSAAKITEVEVEELEDGEVLIRVKVKPEDIDALLELAKKLPEENIELVEKREDGYYVLRIKRPSAGGSA [r15_386_TrROS_Hall]	1.67 ± 0.15	1.53 ± 0.043	1.87 ± 0.16
SAGGSAAKPGETVRVVVTVRVPPGATAEELKAALEALLGPDAEVTVEVFETPDTVVVVVEVRLPPASAGGSA [r15_749_TrROS_Hall]	2.74 ± 0.19	2.65 ± 0.26	2.66 ± 0.11
SAGGSAATTVAVNGKEITIVSVDPATGKVTIAVPENVPESVIQAAKDLLEAQGLPVEVKRVPPEKLSAGGSA [r15_570_JUSTAS]	1.33 ± 0.05	1.42 ± 0.044	1.3 ± 0.013
SAGGSADADDVTIVINMFRNPNNKGWFFRIEIQDPDKEREIFMPFDDIPKFQEAGLKIEITEWYPFSAGGSA [r15_783_TrROS]	3.03 ± 0.086	2.41 ± 0.068	3.29 ± 0.038
SAGGSADENGKPKPTLIIKIEVEHPNGQKFPLSFIFKSPEEAEEIANELANNGYEVNIRLMPLDQISAGGSA [r15_906_TrROS]	1.55 ± 0.059	1.07 ± 0.024	1.71 ± 0.044
SAGGSADGRVVELPVRIRLYRRDPVSGRWELVEEFEVPVRVPAPKDAVVGLRIERRGDRFRIVVGVSAGGSA [r15_537_TrMRF]	3.25 ± 0.07	2.74 ± 0.08	3.537 ± 0.019
SAGGSADIARKIAKWLAEMYGIEEIKVKDIDPNGYIKVEIKMRMYDDGEPVEHKMDIEIPIPPGDLSAGGSA [r15_646_TrROS]	1.98 ± 0.081	1.3 ± 0.035	2.3 ± 0.031
SAGGSADPIRTISGPVPLEEIEANIKKLLKENPNLDAAVFYIPEIGSKITIYFKNGKIVKIEIDLSSAGGSA [r15_166_TrMRF]	4.59 ± 0.16	2.88 ± 0.084	4.79 ± 0.13
SAGGSADVVLVEVRPPVLDPEGRPLLTLVLRLPDGGSRTLVVELSDLAGALANLPPNVRVDEIRPLSAGGSA [r15_339_TrMRF]	2.01 ± 0.067	0.443 ± 0.093	2.31 ± 0.035

Sequence	folding stability dG unfold [1] [kcal/mol]	folding stability dG unfold [2] [kcal/mol]	folding stability dG unfold [3] [kcal/mol]
SAGGSAEEARALAEQVREEVRAAHAPDEVVTVTVELPDGTRVEVTFDAAGEVLSVTIYRPDGTPELSAGGSA [r2_84_JUSTAS]	1.88 ± 0.077	1.04 ± 0.025	2.27 ± 0.049
SAGGSAEEEVETVTLTVTVTVPPAPEVEVVSVEVERLPDGTLRVRAVVRLKDVPDRFVEVELTIRPSAGGSA [r15_627_TrROS_Hall]	3.18 ± 0.16	3.41 ± 0.12	2.95 ± 0.042
SAGGSAEELAKELAEKEGVKEVKVTVIKNKNGKLVLKVENKETNKTYEIELPEGAEVVEEITLKVKSAGGSA [r2_74_TrROS_Hall]	0.923 ± 0.1	0.106 ± 0.086	1.23 ± 0.061
SAGGSAEETIEIEIPLEDLKPRKDGKLTEEEIKERLRKLIEELTGKKPKEITVERDENGTLRITIRSAGGSA [r15_562_TrROS_Hall]	2.2 ± 0.23	1.46 ± 0.13	2.54 ± 0.18
SAGGSAEIPPGAKLEIDEMSFDPGNGRIEMMFKIEDPDGEPLWQIRVSWEFNPENGKMKLDIEIMPSAGGSA [r15_1028_TrROS]	3.49 ± 0.14	2.51 ± 0.19	3.8 ± 0.12
SAGGSAEITEIEIEEEGGRLRVRATVTNENGETFEFEAEIELPPPPPPEEVTLERDPETDEWKEVTSAGGSA [r15_335_TrROS_Hall]	2.22 ± 0.12	2.17 ± 0.06	2.39 ± 0.087
SAGGSAEKKVLKVKVEVVSVEVNEDGTVTVTAKVTFEDGLELTVTVTFDKETGELTIEVELRPLPPSAGGSA [r15_401_TrROS_Hall]	3.13 ± 0.15	2.42 ± 0.22	3.48 ± 0.15
SAGGSAEKPVRTLEITVTVPPGQPTPEELARALAEELGVEVTRVEVVRVERNEDGELTVTVRVEVKSAGGSA [r15_654_TrROS_Hall]	2.99 ± 0.14	3.2 ± 0.21	2.5 ± 0.14
SAGGSAELPSLGAEITVTEDPNRNTYTVTVPLVAPDGAPVGTLTVPFSSLEEARAFLRAQGLGELLSAGGSA [r15_127_JUSTAS]	2.773 ± 0.016	2.59 ± 0.031	2.836 ± 0.01
SAGGSAELVSVDVELEGRYLRVRARFRLPDGREVEVEVRFSLPGVPPAPPVFPYRDPETGELRLGLSAGGSA [r15_335_TrMRF]	3.57 ± 0.14	3.27 ± 0.056	3.614 ± 0.023
SAGGSAEPPEVTVEVLSVEPTPDGYLVVERVVTTPDGVLVYRTVFRPPDGKPVGTDWALFPNPDALSAGGSA [r15_716_TrMRF]	2.95 ± 0.12	2.17 ± 0.23	3.53 ± 0.041
SAGGSAEQTATIESVEYNEETGELTIRIRLENGEEVEITVKPDGTITITLPPGAKITEIEIERLPPSAGGSA [r15_959_TrROS_Hall]	2.53 ± 0.35	1.91 ± 0.15	2.3 ± 0.32
SAGGSAESIPVDELVELAKKLGLDVTVTPLPETGLVRVEITFTTPDGSKVPATVLVHPDGRTTVFPSAGGSA [r15_1051_TrMRF]	2.08 ± 0.032	1.82 ± 0.038	2.208 ± 0.018
SAGGSAFKGMPPEQVKRVIEIDHPNGKDIYIVRYKGPGHMMIFPPKEGKPIYIPMPLDEIKEFLLSSAGGSA [r15_810_TrROS]	0.548 ± 0.094	0.337 ± 0.054	0.672 ± 0.13
SAGGSAFRVQTWDDGKPRKIPIGESLDDLKDQIDDNPNYPIYIEFPNGKPFHMPWSDIKNMIDQLKSAGGSA [r15_36_TrROS]	-0.0315 ± 0.28	0.172 ± 0.17	-0.196 ± 0.47
SAGGSAGALLVRFNDPELVRELIEALPFDALVERDPDDPNVLLVTLFTDGPLEEAVRAVREALGLESAGGSA [r15_118_TrMRF]	2.98 ± 0.086	2.35 ± 0.039	3.25 ± 0.04
SAGGSAGDLELIGVFPFTLPDGRRITVPIFRDPSTGERYLFAETEGEEEDLTPAAIETALAVLERESAGGSA [r15_529_TrMRF]	2.05 ± 0.084	1.87 ± 0.051	2.09 ± 0.037
SAGGSAGGAEVVKVDPKPAGVTTVLERYPDGTLRLLKETEENGKLTVSEVETIPVPDISKPPLLSAGGSAGG [r6_836_JUSTAS]	0.0779 ± 0.11	-0.198 ± 0.075	0.164 ± 0.066
SAGGSAGGAFTVTLPDGRPVRVRLLGATFTFEVRIPPGVPDVVPGAKPDEVVKVTRVVLVVSLDSAGGSAGG [r6_907_TrMRF]	4.16 ± 0.14	2.82 ± 0.13	4.57 ± 0.096
SAGGSAGGANDPEMPKPKRVEITIPPDEEIRNPNGKEMPVEQAREYAEYLADRYGIDVEITISPSAGGSAGG [r6_162_TrROS]	-0.202 ± 0.41	-0.406 ± 0.29	0.215 ± 0.43
SAGGSAGGANTVTIELPNGFRITLNDDGTITISYYDPETGELVKTVTIKLPPPPPVVVVHEDDKSAGGSAGG [r6_572_TrROS_Hall]	3.35 ± 0.12	3.1 ± 0.23	3.39 ± 0.077
